Molecular target: C3d, the covalently bound activation product of complement C3, in mouse myocardium (mouse (endogenous in C57BL/6 heart)) (UniProt P01027)
Assay: ex vivo organ biodistribution (gamma counting); organs removed after imaging, weighed and gamma counted; heart to blood ratio of injected dose per gram

UniProt P01027, sequence (P01027 1002-1303): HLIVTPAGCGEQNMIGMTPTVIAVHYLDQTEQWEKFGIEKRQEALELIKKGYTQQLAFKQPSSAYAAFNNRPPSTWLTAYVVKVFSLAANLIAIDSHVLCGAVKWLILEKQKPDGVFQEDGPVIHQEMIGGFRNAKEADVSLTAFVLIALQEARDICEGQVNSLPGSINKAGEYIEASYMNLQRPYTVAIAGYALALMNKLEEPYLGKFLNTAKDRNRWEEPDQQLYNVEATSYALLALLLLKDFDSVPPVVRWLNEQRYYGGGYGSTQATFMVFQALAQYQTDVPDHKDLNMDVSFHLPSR

heart to blood ratio of %ID/g (heart to blood ratio of %ID/g): 1.17
Substance: 99mTechnecium-labelled recombinant complement receptor 2 (SCR1 and SCR2 of human CR2) (domain or fragment)

Source: PMC5700950
